This is an account of results in article PMC3812244, “Organophosphate and Pyrethroid Hydrolase Activities of Mutant Esterases from the Cotton Bollworm Helicoverpa armigera” (PLoS ONE, 2013).

Common to all, as to experiment: spectrophotometric esterase kinetics, active-site titrated enzyme
Conditions in all cases: wild-type values collected contemporaneously, also reported in Teese et al. [32]

The test system of one data set is CC(=O)Oc1cccc2ccccc12. The format is biochemical, Lucilia cuprina. An excerpt:
spectrophotometric esterase kinetics, active-site titrated enzyme on E3

The next data set has as its system T1, 001f (CCE-001f).
T1 construct: gene CCE001f; untagged, baculovirus expressed in Sf9 cells; titrated active sites
The format is biochemical, Helicoverpa armigera.

A further data set relates to T2, 001b (CCE-001b).
T2 construct: gene CCE001b; untagged, baculovirus expressed in Sf9 cells; titrated active sites
It counts as biochemical, Helicoverpa armigera.

Text for 001b (CCE-001b): spectrophotometric esterase kinetics, active-site titrated enzyme on 001b (CCE-001b)
Text for 001f (CCE-001f): spectrophotometric esterase kinetics, active-site titrated enzyme on 001f (CCE-001f)

In the case of E3 (Lucilia cuprina), in the data set with CC(=O)Oc1cccc2ccccc12, the Km was 88 (10) µM and the kcat is 1399 (70) sec^-1.

As to `CC(=O)Oc1cccc2ccccc12` [1-naphthyl acetate], the results for the Km in the data set with 001f (CCE-001f) and in the data set on 001b (CCE-001b) were 4 µM and 199 µM, respectively.
